One molecule from patent US20170129959A1 (OSE IMMUNOTHERAPEUTICS, published 2017) can be followed below.

Test [1] concerns the target T1, Recombinant hCD127 (Sino Biologicals, reference 10975-H08H) (human, UniProt P16871 21-239).
T1 construct: Bought protein; also called recombinant hCD127 antigen; rCD127
T1 chain: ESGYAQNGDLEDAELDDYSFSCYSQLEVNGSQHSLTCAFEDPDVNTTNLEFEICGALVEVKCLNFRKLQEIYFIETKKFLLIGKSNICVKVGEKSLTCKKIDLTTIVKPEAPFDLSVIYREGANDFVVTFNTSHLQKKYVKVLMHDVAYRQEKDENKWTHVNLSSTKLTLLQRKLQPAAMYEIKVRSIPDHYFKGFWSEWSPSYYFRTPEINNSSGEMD
Briefly: ELISA on immobilised recombinant hCD127; antibody stored 7 days at 37 °C. How it is done:
(§1) FIG. 15. Stability assay of humanized versus Rat anti-CD127 antibodies. Antibody concentrations was measured by ELISA after 7 days at 37° C. (Rat N13B2 wt (+) or humanized N13B2 h3 (square)) and at −80° C. (Rat N13B2 wt (X) or humanized N13B2 h3 (triangle)) and after four frost/defrost events (diamonds).
(§2) Humanized and chimeric purified N13B2-G1 were incubated at 37° C. or at −80° C. for 7 days. Two assays were used to measure stability of antibody: binding anti-CD127 by ELISA assay, and aggregate formation by gel filtration. For activity ELISA assay, recombinant hCD127 (Sino Biologicals, Beijing, China; reference 10975-H08H) was immobilized on plastic at lpg/ml and dilutions of supernatant were added to measure binding. […] For analysis of aggregate formation, sample was analysed on gel filtration chromatography column (Superdex 200, 10/300GL, GeHealthcare) to separate and evaluate aggregate and monomer from samples.
On the technique in general: An ELISA detects its analyte on a solid surface through an enzyme-linked reagent.

Test [2] deals with T2, Human CD127 (IL-7 receptor alpha chain) expressed on cells (human, UniProt P16871 21-459).
T2 chain: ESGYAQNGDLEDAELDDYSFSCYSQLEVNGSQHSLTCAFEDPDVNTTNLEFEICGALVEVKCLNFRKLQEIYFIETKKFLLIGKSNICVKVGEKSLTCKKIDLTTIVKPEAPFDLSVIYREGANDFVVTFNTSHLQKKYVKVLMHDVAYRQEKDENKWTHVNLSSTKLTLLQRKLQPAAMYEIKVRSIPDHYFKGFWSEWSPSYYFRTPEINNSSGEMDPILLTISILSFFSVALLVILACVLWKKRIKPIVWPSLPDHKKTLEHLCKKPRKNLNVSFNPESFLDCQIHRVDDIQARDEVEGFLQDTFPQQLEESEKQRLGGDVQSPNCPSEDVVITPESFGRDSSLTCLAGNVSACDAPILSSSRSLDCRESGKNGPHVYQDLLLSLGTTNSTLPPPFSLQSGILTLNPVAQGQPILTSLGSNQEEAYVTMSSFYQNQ
Briefly: cell-based or functional assay.

Test [3] deals with T1, Recombinant hCD127 (Sino Biologicals, …). Briefly: ELISA on coated recombinant hCD127, anti-human kappa detection; antibody after 4 frost/defrost events; printed as ED 50.
Test [4] addresses T3, Recombinant CD127 Fc Chimera (10975-H03H, Sino Biological) (human, UniProt P16871 21-239).
T3 construct: Bought protein; also called hCD127-Ig; human CD127Fc; not shown: constant fragment of an immunoglobulin
T3 chain: T1 chain
Kind of test: ELISA, human CD127Fc coated, revealed with anti-human kappa antibody; printed as ED 50.

Test [5] concerns the target T1, Recombinant hCD127 (Sino Biologicals, …). Briefly: ELISA on immobilised recombinant hCD127; antibody after four frost/defrost events.
The target is the same in test [6]. Briefly: ELISA on immobilised recombinant hCD127; antibody stored 7 days at -80 °C. Here is the method: as §1, §2
For test [7] the target is unchanged. Briefly: ELISA on coated recombinant hCD127, anti-human kappa detection; antibody stored 7 days at 37 °C; printed as ED 50. How it is done: as §1, §2
The target is the same in test [8]. Briefly: ELISA on coated recombinant hCD127, anti-human kappa detection; antibody stored 7 days at -80 °C; printed as ED 50. Here is the method:
as §1, §2

B1: N13B2-h3 (humanized N13B2) (antibody, IgG4, V domains shown)
VH: QVQLVESGGGLVKPGGSLRLSCAVSGFTLSDYYMAWIRQAPGKGLEWVSTISASGLRTYYPDSVKGRFTISRDNAKNSLYLQMNSLRAEDTAVYYCARPLSAHYGFNYFDYWGQGTLVTVSS
VL: EIVMTQSPATLSVSPGERATLSCRTSEDIYQGLAWYQQKPGQAPRLLIYSANTLHIGIPARFSGSGSGTEFTLTISSLQSEDFAVYYCQQYYDYPLAFGGGTKVEIK
notes: Variable regions only
Consider B1, for which the EC50 (read off the curve) (commonly the concentration that produces a half-maximal response) in test [1] was approximately 1 ng/mL; in test [5], approximately 2 ng/mL; in test [6], approximately 1 ng/mL. In addition, in test [2], the “IC 50 of inhibition of IL7 induced P-STAT5 on T lymphocytes (0.1 ng/ml rhIL-7)” value turned out to be 21.2 ng/mL. In addition, the EC50 (as a rule, the concentration that produces a half-maximal response) in test [3] turned out to be 1.7 ng/mL; in test [4] it was 0.6 ng/mL; in test [7] it was 1.1 ng/mL; in test [8] it was 1.3 ng/mL.
